Results on 23 sequences are retold here after the DeepSol protein solubility set.

The data set is described as follows: soluble on expression in E. coli; label from the status in PepcDB or PDB records.
As for “MSGSTESKKQPRRRFIGRKSGNSNNDKLTTVAENGNEIIHKQKSRIALGRSVNHVPEDILNDKELNEAIKLLPSNYNFEIHKTVWNIRKYNAKRIALQMPEGLLIYSLIISDILEQFCGVETLVMGDVSYGACCIDDFTARALDCDFIVHYAHSCLVPIDVTKIKVLYVFVTINIQEDHIIKTLQKNFPKGSRIATFGTIQFNPAVHSVRDKLLNDEEHMLYIIPPQIKPLSRGEVLGCTSERLDKEQYDAMVFIGDGRFHLESAMIHNPEIPAFKYDPYNRKFTREGYDQKQLVEVRAEAIEVARKGKVFGLILGALGRQGNLNTVKNLEKNLIAAGKTVVKIILSEVFPQKLAMFDQIDVFVQVACPRLSIDWGYAFNKPLLTPYEASVLLKKDVMFSEKYYPMDYYEAKGYGRGETPKHAIE”, the “soluble on expression in E. coli” value is reported as “soluble”.
Next, “MSHKFSRRAFAVLTAAAISTSAFATTAPSAIAEPVSNVATADDSSVATSENSLDWGFKASWRTYVTGPWTGGTVDATGGATVNEDGTYNFTLGTGSNYDVDTEKGQLNYEGTVAFASDAHGFNITLSNPQITVEGDTATLSAELSDNAAPEETSTTRVDVAEFELTAPEVSETDADITYTWTDASGTFLETLQPEELSRYAGQEADALSFSITVDKASENPSDDVATGSSSSFLSTILNFLQQLASPLLKLFGSLSS”: “not soluble”; “MSHLDEVIARVDAAIEESVIAHMNELLIALSDDAELSREDRYTQQQRLRTAIAHHGRKHKEDMEARHEQLTKGGTIL”: “soluble”.
In the case of “MSHSYSVPKKFPTTVVGSYPKIGPASEAIKKRRAGEISEEEFHRIARESIRMVVEDYIWAGVDIISDGEQTREDMVVYFAERLEGYREGDWVRVFDNVYFRKPIVAGRVRWVRPMIIEDWEYARSISAGRPVKFIITGPYTMLEWSFDLHYGDRRELIFDLARAIRREIDEALARGAEYIQVDEPALSTRPFKEEAELLKEALDIIFKGVGAKRIVHICYGELERILPYILDYPVDQFDLEMKNSNFRLLPYLKEYGYDKEIGYGVIDVHSFQVESVGEVKEAIDRLMKMDIVGPEKVYVDPDCGLKRLPRDVARAKLKNMVEAARLAREEWMAGDPLEHHHHHH” it was “not soluble”; in that of “MSIAQQLMDMGFPADKAEAAAGNNRNLDQALDWIEKDGAGVPMETDAPAQAAPGAADSGAPPVAASFKCDDCGKLLANDDAIMFHASKTKHENFSESSEAIKPLTAEEKAAKVLEIREKIKVHQAKKAKLEAEENREKEKKRREDGKAMISHKEAARDREIREAAQDRRREKNEDEIARKRVLEQIRLDKEARKAKASGQPVPEAKPAPSAAPVAPPKDYSTTTLQFRLLDGQTVRQQFEANEPLAMVRAWVETNHANGVPFTLMTPFPRKVFTEDDMGTPLKVLNLVPSANVILNRAA”, “not soluble”; in that of “MSIEVPISIPKTLIIIPAYNEEEAIADTLTRLLELKQHFTALSICVINDGSQDKTAQIVKNFPVHLINLPYNLGIGSAVQTGYKYAYENGYDIAIQFDADGQHNPDDLYKIIQPIAEGQCDMVLGSRFTEKTAYKGSISRRIGIFYFTALLKVLTKQTFMDPTSGYRAINREVITIFAHNYPKDYPEPEVLIHLKKKKLRINEISVNMQERQGGQSSITPLKSAYYMIKVSLAILMQKIVKGLEHHHHHH”, “not soluble”.
As for “MSIRNSASRDDTSASVEDSILDAARSCILDFGLRRTTLAEVARRAGVSRPTVYRRWSDTRAVVADLMTREIAAVMPEFSVEESVHRQLVDAVVHVSTEVRDHPLFVKILRSDQELFTTYILERLGTSQRAIIDQVAFAVSTGQDQGSIRAGDSRHIATMVLLIAQSAVQSAVMVAEELPGDALTEQLRHAVGAYLAPDVAVTHPTDRGDR”, the “soluble on expression in E. coli” value is on record as “not soluble”.
Take “MSITLRTYIFLDALQPQLATFIGKTARGFLPVPGQASLWVEIAPGIAINRVTDAALKATKVQPAVQVVERAYGLLEVHHFDQGEVLAAGSTILDKLEVREEGRLKPQVMTHQIIRAVEAYQTQIINRNSQGMMILPGESLFILETQPAGYAVLAANEAEKAANVHLVNVTPYGAFGRLYLAGSEAEIDAAAEAAEAAIRSVSGVAQESFRDR”: the “soluble on expression in E. coli” value is recorded as “not soluble”.
Turning to “MSKDEILKLGREEFFKSVKMEYRPYFEPYETPESVYPDGSINIDCTCLHSALAHRCGYLIRDALVCFNASKTTPRGLDCEKEFVAHAICTEEANNKS”, the “soluble on expression in E. coli” value was “not soluble”.
In the case of “MSKIEIFEAAGCCATSSVVVSDEAVKWNASAEWAKKHGVNIQRYSLAKNPQQFLNTPVIRAFLNTSGMESLPATLLDGQLVMAGKLPSREDIARWAG” it was “soluble”; in that of “MSKKFEGSVAPRERINISYVPKTDGQTAEVELPLNMLVVGDTGNTQETSSLDERQAVSVNKHNFGAVMAEAAIGLNFTVPATLKGSTTDDEMNVALNIKSLDDFSPDSVARQVPEVNKLLELREALTALKGPMGNLPAFRTQLQALLENEESREQLLKEIGQVSNK”, “soluble”; in that of “MSKLDTIFEVVISRDKMEATLKQHEPFPEDHPVTKDELLSFMKEHGVVFGVKESVIDQVVKSEKGLTSSVKVAEGLQPQNGKHGYLQPIQHEEEERDVHSISAMNLRDVLSIPEVKQGQVIGKKIPATLGEDGMNVLGEPIKAKPGREFVLRPGKNSTVDEANGTLVAAVDGQMSVDKRTIHVYPVYEVPGDLTMKHGNISFIGNVIIRGHVPDGFVVKAGGDIRVFGTVEGATLEAGGSIFVGAGIVGQNRGCIRAEGGLHTTFINQAKVEVGGDIEVVQSILHSTCTAGGKIICTRGKGNIVGGALSAEDHIYAKEIGNSMHTKTSLYIGAKEKWVTKEKQLAKEYKTTEEELKKLSLLLQKFQELEKENGLTANGRVQRLRVKNTLVQVKEKHEQIKEQLEDVQENLTLNQAGSIVVEQTLYPNVSAHFGKYRRKIVSNHSNVKLSLVDQEIQLSSRLEHHHHHH”, “soluble”.
Next, “MSKQIVILGAGYGGLLAALNVRKYYSKSEAQVTVINQYPTHQIITELHRLAAGNVSEQAVAMPLTKLFKGKDIDLKIATVESFSVDSKEIKLAGGTTLSYDALVVALGSKTAYFGIPGLEENSMVLKSAADANKIYKHVEDRIREYAKTKNEADATIVIGGGGLTGVELVGELADIMPKLAKSHGVNPKEVKLLLVEAGPKILPVLPDHLIERATTSLEARGVTFLTGLPVTNVAGNEIDLKDGQKLVANTFVWTGGVQGNPLIGESGLEVNRGRATVDAYLQSTSHKDVFVAGDSAVVFAPDGRPYPPTAQIAWQMGELIGYNLYAALEGKAFEEFAPVNSGTLASLGRKDAVATIGASNTPLKGLPASLMKEASNVRYLSHIKGLFSLAY”: “not soluble”; “MSKSALHAFIDRARADEDFRSKLAHLDPNQIIEFAGQHGFLFSDEIKGRFINRWSGVYFCPQAIEVGQLCPALVPDGYKNLIHYAQSTCSSSNLSEEERDFRSGIKY”: “not soluble”; “MSKSEEKQELPLETSPYTKYEDIEDYKKNAYGTSGHQDVKPGHGGGTTDAPTPSGDAAPSAIDSANQKAKK”: “soluble”.
For “MSKTLDGEPIECEIIDSLKLVNNTMDKIISRGYEKSAIYTPKAYGSVYRLSETNLLSKNEFKDNLLITFMAKKFKKLIRSEKPDLIIGTHPFPMIALSTLKKNFNLHNNESNAYTEHFYKHYTNTINVPPLISVLTDYTTHSTWIQNEIDYYIVGHEYVKELLVFDGVEPSKIRTFGIPLEHHHHHH”, the “soluble on expression in E. coli” value is reported as “not soluble”.
Take “MSKVAMVTGGAQGIGRGISEKLAADGFDIAVADLPQQEEQAAETIKLIEAADQKAVFVGLDVTDKANFDSAIDEAAEKLGGFDVLVNNAGIAQIKPLLEVTEEDLKQIYSVNVFSVFFGIQAASRKFDELGVKGKIINAASIAAIQGFPILSAYSTTKFAVRGLTQAAAQELAPKGHTVNAYAPGIVGTGMWEQIDAELSKINGKPIGENFKEYSSSIALGRPSVPEDVAGLVSFLASENSNYVTGQVMLVDGGMLYN”: the “soluble on expression in E. coli” value was “soluble”.
In the case of “MSKVKGDLEKSDKRPPSSMSTGSADSGVFSSGVHASSPSHSQGSSSQSGPPSPTTQLNSLLFETANLIAVNEQLRKEIAENKQIQTNQMRALRYSSNPVDQPFVANSISPHHGFPQRPPRGERRMQKPESYKTVICQAWLESKTCTFAENCRFAHGEEELRPAKLESRQNNKYKTKLCDKYTTTGLCPYGKRCLFIHPDNQPNAYIRADKLYEVSQRHALADLRDHVESQIMTGNTRNSYNQQPPPMGGLEMQSSPMKSSSDSSHMRSPMAQMNCETTRPHPSWPLESSSFFLPPEMSSINNNNLMSPFETPFPNGSTGIQPHFVTAKRRAAFPPVPSNFQQDDDNMSSIPGFDHLAEDMAKHLELW” it was “not soluble”; in that of “MSLAAPNAASGVLKLYRAYREQAQRLSDLSDLLAREGHETALSSTRLPIDEVRHVFENRPAYFHAIDAAAEELHKQLSTGDDLASGLRAWLQKNHGIVVRTLPVHAMPNLRRRYDRHSMRLFLSERLSQPDQLREMAMETCLLALREEIGTELEALGLKGEEARRIARFELARYAAHALMMPYGAFLAAAQRAKYDLDVLRSRFNVSFEQAANRLVSLQRPTTAAIPFFLMEIDNAGNRFRLAGAGGFPRARFGGLCPRLNIHAAFAQPGQVLVESVEMPDGDAFLTVSRTLEGEGHHHHHH”, “not soluble”.
In the case of “MSLAAPTLTGGKLTVGIQGTHAELGVLLYPGVQMAAVHGLSDLFEVANRIAGEQPQAQLPRLRVSHWQASGELPPVRVHDSLAEAPGALLAVLIPPSLAGFSSHQSSAALMDWLRQQHAAGATLGGVCVGSILLAESGLLDGRSATTHWTSAQAFAERYPQVRLEADKPIVDDGDLITSAGLMAWAELGLRLVNRLLGPSIASATARFLVMEHSASASQCGSNFAPILSHGDGAILKLQHWLQANGAVDVSLPVMAQQAGLEPRTLLRRFRAATGLKPTQYCQHLRVGKARELLEFTNGSIDHIAWTVGYQDPATFRSLFRKITGLAPSEYRNRFGATSTAASREGHHHHHH”, the “soluble on expression in E. coli” value is recorded as “soluble”.
For “MSLADIFDFPRDARNVARADGKEADMGGEAPQTMLMRPQGVPDQVWNAVLSVDRMRRLKGMTYREIPVPNSMANFGIGVALECDETYASGWIMILYSLKFREDWHSHWRCVAFASLPLPDKEDDCLTPGMYWDMMMERLNPNDSEHVSGTVTVTQNTAFGHDPDVPRVGCEIRVSWTPLDYADGGLDAGSQVGQWASFLRSMTQSEEEGHHHHHH”, the “soluble on expression in E. coli” value is “soluble”.
In the case of “MSLAGHQPILTVSEVTRHLKRTIEDDPLLQDVWMRGEISNFKHHSRGHMYFTLKDEHAKMSAVMFAGNNRFLNFKPENGMKVIVRGEVNVYEPFGQYQLYALEMQPDGIGNLYLAYEQLKERLEQEGLFKEENKKPLPPVARQIAIVTSPTGAAIRDIASTIKRRFPVAQLTLLPVLVQGEEAPHSIAKAIRQANEVGGFDLLIVGRGGGSIEELWAFNEELVARAIYQSVIPIISAVGHETDYTIADFVADVRAATPTGAAELAVPDLKELISRVNQYTERLKRAQHELLKRQKEHLQRLQKSYAFRYPAQLVKQKELELDQQLERLTKHQRRMVSDAKDRLSQLEYRLKRIHPEGRLRQAEQARVKLEVLLKKEFQQMMERKEQQFQQAISSLNLLSPLRVMERGYALPYKAKTQELIKSVKQVRMNDRLHLRVTDGQLICDVKEIESESGGEGYDQKEGHHHHHH” it was “not soluble”; in that of “MSLAHIRTRETYGTRRLQTELAENGIIVGRDRLARLRKELRLRCKQKRKFRATTNPNHNLPVAPNLLNQTFAPTAPNQVWVADLTYVATQEGWLYLAGIKDVYTCEIVGYAMGERMTKELTGKALFMALRSQRPPAGLIHHSDRGSQYCAYDYRVIQEQSGLKTSMSRKGNCYDNAPMESFWGTLKNESLSHYRFNNRDEAISVIREYIEIFYNRQRRHSRLGNISPAAFRENIIRWLLKKRTNGSVRYCQYTSKVAMIYIEQLELIHKSGDVLYPVKITRKSSGKTAFHLVPFGLNKTHDLLEVEDASEAIRLVIDERHSIRCSTLTATITNKKGKRIKRTGIYSIKGVNIKEYNVREGHHHHHH”, “not soluble”.
